Reference: paper PMC2575037 (Protein expression and purification, 2008)

T1: bDHFR (Bos taurus, UniProt P00376)
T1 sequence (P00376 1-187): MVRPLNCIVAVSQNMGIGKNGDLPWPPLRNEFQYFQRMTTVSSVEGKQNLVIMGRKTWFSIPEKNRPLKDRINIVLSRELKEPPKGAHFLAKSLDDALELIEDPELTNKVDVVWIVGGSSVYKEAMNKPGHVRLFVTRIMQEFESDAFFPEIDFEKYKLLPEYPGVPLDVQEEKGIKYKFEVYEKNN

T2: mDHFR (Mus musculus, UniProt P00375)
T2 sequence (P00375 1-187): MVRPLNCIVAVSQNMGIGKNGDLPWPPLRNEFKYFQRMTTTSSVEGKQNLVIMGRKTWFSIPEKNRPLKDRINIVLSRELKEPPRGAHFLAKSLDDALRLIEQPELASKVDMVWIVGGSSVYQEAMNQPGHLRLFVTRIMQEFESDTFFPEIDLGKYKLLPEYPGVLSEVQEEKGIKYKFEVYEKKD


Experiments:
bDHFR [1] = target: T1, bDHFR; experiment: spectrophotometric DHFR assay at […] nm; assay type: biochemical
mDHFR = target: T2, mDHFR; experiment: spectrophotometric DHFR assay at […] nm; assay type: biochemical; settings: read-out: % inhibition at 122 μM
bDHFR [2] = target: T1, bDHFR; experiment: spectrophotometric DHFR assay at […] nm; assay type: biochemical; settings: read-out: % inhibition after preincubation with 0.68 mM
purified protein [3] = substrate: Nc1nc2c(c(=O)[nH]1)N=C(CNc1ccc(C(=O)N[C@@H](CCC(=O)O)C(=O)O)cc1)CN2; experiment: purified protein; settings: 37 °C, KCl, co-substrate NADPH
purified protein [4] = substrate: NC(=O)C1=CN([C@@H]2O[C@H](COP(=O)(O)OP(=O)(O)OC[C@H]3O[C@@H](n4cnc5c(N)ncnc54)[C@H](OP(=O)(O)O)[C@@H]3O)[C@@H](O)[C@H]2O)C=CC1; experiment: purified protein; assay type: biochemical, Bos taurus; settings: 37 °C, KCl, co-substrate DHFA, varied: cofactor
purified protein [5] = substrate: NC(=O)C1=CN([C@@H]2O[C@H](COP(=O)(O)OP(=O)(O)OC[C@H]3O[C@@H](n4cnc5c(N)ncnc54)[C@H](OP(=O)(O)O)[C@@H]3O)[C@@H](O)[C@H]2O)C=CC1; experiment: purified protein; assay type: biochemical, Mus musculus; settings: 37 °C, KCl, co-substrate DHFA, varied: cofactor

| Molecule | Km (purified protein [3]) | kcat (purified protein [3]) | kcat/Km (purified protein [3]) | also measured |
| --- | --- | --- | --- | --- |
| CNCCC=C1c2ccccc2CCc2ccccc21 [nortriptyline] | – | – | – | Ki (bDHFR [1]): 840 ± 250 nM |
| O=C(O[C@@H]1Cc2c(O)cc(O)cc2O[C@@H]1c1cc(O)c(O)c(O)c1)c1cc(O)c(O)c(O)c1 [EGCG] | – | – | – | inhibition at 122 µM (mDHFR): 18%; inhibition at 680 µM (bDHFR [2]): 26% |
| bDHFR (Bos taurus) (protein) MVRPLNCIVAVSQNMGIGKNGDLPWPPLRNEFQYFQRMTTVSSVEGKQNLVIMGRKTWFSIPEKNRPLKDRINIVLSRELKEPPKGAHFLAKSLDDALELIEDPELTNKVDVVWIVGGSSVYKEAMNKPGHVRLFVTRIMQEFESDAFFPEIDFEKYKLLPEYPGVPLDVQEEKGIKYKFEVYEKNN | 0.35 ± 0.13 µM | 24 ± 7 s⁻¹ | 6.8e+07 M⁻¹ s⁻¹ | Km (purified protein [4]): 3.2 ± 0.6 µM; kcat (purified protein [4]): 24 ± 7 s⁻¹ |
| mDHFR (Mus musculus) (protein) MVRPLNCIVAVSQNMGIGKNGDLPWPPLRNEFKYFQRMTTTSSVEGKQNLVIMGRKTWFSIPEKNRPLKDRINIVLSRELKEPPRGAHFLAKSLDDALRLIEQPELASKVDMVWIVGGSSVYQEAMNQPGHLRLFVTRIMQEFESDTFFPEIDLGKYKLLPEYPGVLSEVQEEKGIKYKFEVYEKKD | 0.32 ± 0.05 µM | 29 ± 5 s⁻¹ | 9.2e+07 M⁻¹ s⁻¹ | Km (purified protein [5]): 2.4 ± 0.5 µM; kcat (purified protein [5]): 29 ± 5 s⁻¹ |
| hDHFR (Homo sapiens) (protein) MVGSLNCIVAVSQNMGIGKNGDLPWPPLRNEFRYFQRMTTTSSVEGKQNLVIMGKKTWFSIPEKNRPLKGRINLVLSRELKEPPQGAHFLSRSLDDALKLTEQPELANKVDMVWIVGGSSVYKEAMNHPGHLKLFVTRIMQDFESDTFFPEIDLEKYKLLPEYPGVLSDVQEEKGIKYKFEVYEKND | 2.7 ± 0.5 µM | 40 ± 2 s⁻¹ | 1.5e+07 M⁻¹ s⁻¹ | – |
